Assay results reported in paper PMC7168936.

Substrate: N[C@@H](COP(=O)(O)O)C(=O)O
Test: purified protein, by the assay type
Conditions: other: substrates of PSAT1, optimized conditions; pH 8.5

B1: PSAT1 (Homo sapiens) (protein)
chain: MDAPRQVVNFGPGPAKLPHSVLLEIQKELLDYKGVGISVLEMSHRSSDFAKIINNTENLVRELLAVPDNYKVIFLQGGGCGQFSAVPLNLIGLKAGRCADYVVTGAWSAKAAEEAKKFGTINIVHPKLGSYTKIPDPSTWNLNPDASYVYYCANETVHGVEFDFIPDVKGAVLVCDMSSNFLSKPVDVSKFGVIFAGAQKNVGSAGVTVVIVRDDLLGFALRECPSVLEYKVQAGNSSLYNTPPCFSIYVMGLVLEWIKNNGGAAAMEKLSSIKSQTIYEIIDNSQGFYVCPVEPQNRSKMNIPFRIGNAKGDDALEKRFLDKALELNMLSLKGHRSVGGIRASLYNAVTIEDVQKLAAFMKKFLEMHQL
Km: 25.1 ± 5.3 μM μM
